Our source for the self-cleavage values is the RNAGym collection of RNA variant scans (doi:10.7554/elife.90254).

To fix the notation:
B1: LINE1-full (parent)
chain: UACGUAGGUGGUUUUCCCCUGAUAGUGCUAAGGGGGCCUGGAAGUUUGGACUGGGCAGAGCUCAACACAGCGUGGCAAAGUGGCUGUGGCUAGACUGCCUCUCUGGAUUCCUCGUCACUCAGCAGGGCAUCUCUGAGAGAAAUGCC

In this data set the parent is B1. Briefly: self-cleavage, relative activity (ratio to wild type); higher = more cleavage; in vitro, sequencing; the parent is a self-cleaving ribozyme.
In the case of U9A G70A, the self-cleavage amounted to 0.12.

Take U9A C103U: the self-cleavage was 0.84. On to U9A A121G, for which the self-cleavage was 1.56.

With U9A A121U, the self-cleavage is 2.38. The figure for U9C A24G is 1.04; for U9C A30G it is 1.21. On to U9C A30U, for which the self-cleavage turned out to be 0.87.

Turning to G8A A57U, the self-cleavage stood at 0.16.

With U9A U109A, the self-cleavage came out at 0.14.

Turning to U9A G60A, the self-cleavage came to 0.1. The figure for U9A G60U is 0. Take U9A G97A: the self-cleavage came to 0.12. In the case of G8A A64G, the self-cleavage came out at 0.42. As for G8A U9C, the figure is 0.63; as for U9C A50G, 1.

On to U9C A50U, for which the self-cleavage was 1.38. The figure for U9C A64C is 0.35. On to U9C A64U, for which the self-cleavage is 0.6. On to U9A A124G, for which the self-cleavage stood at 1.02. The figure for U9A A124C is 1.74; for G8A G82A it is 1.71.

As for G8A G135A, the self-cleavage was found to be 1.23. The figure for G8A A69C is 0.04; for U9A C120U it is 1.12. The figure for U9A G36A is 1.09. As to U9A A24G, the self-cleavage is 0.93.

Turning to U9C A124G, the self-cleavage was 1.15. As for U9C A124C, the figure is 2.53; as for U9C A129C, 1.24. U9A C110U: the self-cleavage came out at 1.06. For the variant G8A A30G, the self-cleavage was 0.67. With U9A U100A, the self-cleavage worked out at 0.72. Regarding U9C A43U, the self-cleavage was 0.77.

Consider G8A U115C, for which the self-cleavage stood at 1.33. Turning to G8A U15C, the self-cleavage came out at 1.97. The figure for U9A U134A is 1.17; for U9A U108A it is 1.01.

As for U9A C98U, the self-cleavage worked out at 0.28. As for U9A C38A, the figure is 1.26.

For U9A A69U, the self-cleavage was determined as 0.06. As for U9A A43G, the figure is 1.1; as for U9A A43U, 0.61; as for G7U U62C, 0.04.

In the case of U9A C116U, the self-cleavage was 0.95. With G8U U81A, the self-cleavage amounted to 2.37. In the case of U9A G54A, the self-cleavage was 0.65. The figure for U9A G88A is 0.12; for U9A U91A it is 0.53; for U9A U91C it is 0.36.

As for U9C A117C, the self-cleavage came out at 1.41.

Take G8A A124G: the self-cleavage amounted to 1.04. For the variant G8A U87C, the self-cleavage worked out at 0.19. Consider G8A U47C, for which the self-cleavage is 1.82. As for U9A U14C, the figure is 0.89; as for U9A U14G, 0; as for G8U U115C, 1.93. As for G8A A79G, the figure is 1.36. As for U9A U119C, the figure is 1.04.

As for U9A G33U, the self-cleavage stood at 1.6. The figure for G8A A117C is 1.03; for G8U C145U it is 2.38; for U9A U62C it is 0.09. As to U9C A65G, the self-cleavage stood at 0.16. The figure for G8A U109C is 1.21; for G8C U81C it is 1.08. As for U9A U87C, the self-cleavage was 0.19. The figure for U9A U87A is 0.15; for G8A U85C it is 0.25; for U9A U73A it is 1.29. The figure for U9A U73C is 0.94. For G8U A42U, the self-cleavage came to 1.17. For U9A A136U, the self-cleavage stood at 0.81. Regarding G8C A141U, the self-cleavage worked out at 1.33. As for G8A G34U, the figure is 1.22; as for G8U C128U, 1.14. In the case of U9A A129C, the self-cleavage was 1.22. The figure for U9A A129G is 1.24; for U9A A92G it is 0.15; for G8A U96A it is 0.08. As for G8A U96C, the self-cleavage turned out to be 0.15. In the case of G8A U112C, the self-cleavage turned out to be 1.03.

As to G8U U9A, the self-cleavage came out at 2.01. On to U9C A92G, for which the self-cleavage turned out to be 0.1.

For the variant U9C A92C, the self-cleavage came out at 0.48. As for U9C A92U, the figure is 0.28. Consider U9A U20C, for which the self-cleavage came out at 0.88. Regarding G8C U45C, the self-cleavage came to 2.04. Regarding U9C A121G, the self-cleavage stood at 1.27. The figure for G8A C120U is 2.87; for G8A A138G it is 2.47; for G8A U91C it is 0.69. As to U9C A78C, the self-cleavage was 1.5.

As to U9C A78U, the self-cleavage amounted to 2.65. On to U9A U96C, for which the self-cleavage came to 0.19. For the variant G8A C61U, the self-cleavage was 0.06. On to G8A C37A, for which the self-cleavage stood at 0.87. As for U9A A107G, the figure is 1.02. The figure for U9A G40A is 1. For U9A, the self-cleavage worked out at 1.05. As for U9C, the figure is 1.22; as for G8U U119A, 1.51.

Turning to G7U U73A, the self-cleavage stood at 1.14. As for U9A G144A, the figure is 1.19.

Take G7U U46C: the self-cleavage was 0.47. The figure for U9A A65G is 0.21; for G8U A129G it is 0.32; for G7U U104C it is 0.9. On to U9C A79G, for which the self-cleavage worked out at 1.35. In the case of U9C A79C, the self-cleavage amounted to 1.2. As for U9C A79U, the figure is 1.66. The figure for G8U U39A is 1.12; for U9A C123U it is 1.11; for U9A A22G it is 1.53. As for U9A U15C, the self-cleavage worked out at 1.08.

With U9A U130C, the self-cleavage was 1.07.

For U9A U130A, the self-cleavage was found to be 1.23. For G8U G35A, the self-cleavage worked out at 1.41.

As for U9A U23C, the self-cleavage came to 0.93.

As to U9A A138U, the self-cleavage amounted to 1.01.

For U9A C37G, the self-cleavage turned out to be 0.82.

U9A A140U: the self-cleavage stood at 1.08.

Take U9A A94U: the self-cleavage was found to be 0.39. The figure for U9A U12A is 0.37; for U9C A31G it is 0.91; for U9C A31U it is 1.2. As for U9A U29A, the figure is 0.79; as for U9A U29C, 1.19; as for U9A G125U, 0.15. The figure for G8U U29C is 1.99; for U9A U104A it is 1.29. Regarding U9A U104G, the self-cleavage was 0.98. As for U9A C131U, the self-cleavage stood at 0.79.

Consider U9C A42C, for which the self-cleavage was 0.88.

Regarding U9A C111G, the self-cleavage was found to be 1.11. The figure for G8A A43G is 1.08; for G8A G125U it is 1.53. Turning to G8U U109C, the self-cleavage amounted to 0.67. Regarding G8U A59G, the self-cleavage stood at 0.12.

For the variant U9A A77G, the self-cleavage worked out at 1.61. As for U9A U115A, the figure is 1.09; as for U9C A59G, 0.11. The figure for U9A A67U is 0.25.

Consider U9C A77U, for which the self-cleavage was 1.19. As for G8A G70A, the figure is 0.17; as for G8A A22G, 1; as for G8U, 1.39.

With G8C, the self-cleavage was found to be 1.66. For the variant G8A, the self-cleavage worked out at 1.45. As to G8U A136G, the self-cleavage is 0.46. As for U9A A64G, the figure is 0.26. With U9A A79G, the self-cleavage turned out to be 1.01.

On to U9A A79U, for which the self-cleavage is 1.59. As for U9C A69U, the self-cleavage is 0.06. G8A G44A: the self-cleavage was found to be 1.08.

Turning to G8A U12C, the self-cleavage came to 1.17. As for G8A G49A, the figure is 1.07.

For G8A C113A, the self-cleavage turned out to be 1.31.

For the variant G8C A22G, the self-cleavage was found to be 0. Regarding U9A U45G, the self-cleavage is 1.05.

For the variant U9A A59G, the self-cleavage is 0.18.

G8U U14C: the self-cleavage was determined as 2.04. The figure for U9A C19U is 0.71; for U9A A50U it is 0.45; for U9A A50G it is 1.03. Regarding U9C A57U, the self-cleavage was found to be 0.24.

As for U9A U46A, the self-cleavage is 1.22.

Turning to U9C A22G, the self-cleavage worked out at 1.03.
